The values that follow come from patent US20110319600A1.

Assay [1] addresses hemagglutinin (HA) of human influenza B virus, B/Malaysia/2506/04 strain (human influenza B virus, B/Malaysia/2506/04 strain).
The target in assay [2] is hemagglutinin (HA) of human influenza B virus, B/Mie/1/93 strain (human influenza B virus, B/Mie/1/93 strain).
The target of assay [3] is hemagglutinin (HA) of human influenza B virus, B/Shanghai/261/02 strain (human influenza B virus, B/Shanghai/261/02 strain).
Assay [4] deals with hemagglutinin (HA) of human influenza B virus, B/Victoria/2/87 strain (human influenza B virus, B/Victoria/2/87 strain).
In assay [5] the target is hemagglutinin (HA) of human influenza B virus, B/Malaysia/2506/04 strain (human influenza B virus, B/Malaysia/2506/04 strain). Kind of assay: cell-based or functional assay.

Chain of hemagglutinin (HA) of human influenza B virus, B/Victoria/2/87 strain (human influenza B virus, B/Victoria/2/87 strain) (P22092 16-585): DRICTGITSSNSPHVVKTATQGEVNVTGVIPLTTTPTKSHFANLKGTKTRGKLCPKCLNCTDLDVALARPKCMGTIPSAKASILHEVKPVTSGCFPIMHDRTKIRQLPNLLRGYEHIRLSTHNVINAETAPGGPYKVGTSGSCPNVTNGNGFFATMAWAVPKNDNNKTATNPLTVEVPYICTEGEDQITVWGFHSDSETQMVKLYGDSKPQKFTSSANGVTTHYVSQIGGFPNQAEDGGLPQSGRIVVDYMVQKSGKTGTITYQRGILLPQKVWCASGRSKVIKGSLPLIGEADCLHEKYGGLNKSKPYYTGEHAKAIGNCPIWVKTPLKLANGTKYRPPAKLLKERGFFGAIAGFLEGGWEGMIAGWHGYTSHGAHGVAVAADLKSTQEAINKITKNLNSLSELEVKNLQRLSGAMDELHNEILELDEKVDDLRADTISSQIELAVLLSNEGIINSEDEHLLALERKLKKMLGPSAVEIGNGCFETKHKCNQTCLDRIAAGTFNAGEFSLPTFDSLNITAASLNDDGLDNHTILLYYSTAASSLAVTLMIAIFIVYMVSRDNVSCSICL

B1: B-3 monoclonal antibody (antibody, V domains shown)
VH: QVKLVQSGGGAVQPGRSLRLSCEASGFDFTVYDIHWVRQAPGKGLEWVASIWHNGGKAYYADSVKGRFTVSRDNPQKTVYLQMSGLRPEDTATYYCAREFPFMGIYDYGMDAWGQGTTVTVAS
VL: QSVLAQPPSASGTPGQRVIISCSGTSSNIGGNSVNWYQHPPGAAPRLLIYTTDQRPSGVPDRFSGSKSGTSASLAISGLQSEDEADYYCEVWDDSLTRPVFGGGTKLTVL
On to B1, for which the staining activity in assay [1] was found to be 8; in assay [2] it was 32; in assay [3], 32; in assay [4], 32. The same molecule returned an HI activity in assay [5] below 2. The molecule further returned a Neutralization activity (% inhibition) in assay [5] of 31.7 % inhibition.

B2: E-2 monoclonal antibody (antibody, V domains shown)
VH: QVQLQESGPGLVKPLQTLSLTCVVSGDSISRGGYYWSWVRQPPERGLEWIGDIYHSGSTNYNPALKSRTTISVETSKNQFSLQLNSVTAADTAVYYCAREPPPDYSDYKVGKGYFDYWGQGALVTVSS
VL: EIVLAQSPATLSLSPGERATLSCRASETVDTYLAWYQQKPGQAPRLLINDASKRATGIPARFSGSGSGTDFTLTISGLEPEDFAVYWCQQHSNWPPTFGQGSRLEIK
Regarding B2, the staining activity in assay [1] is 128; in assay [2] it was 128; in assay [3] it was above 128; in assay [4], above 128. Besides, the HI activity in assay [5] was below 2. In assay [5], this molecule yielded a Neutralization activity (% inhibition) of 37.8 % inhibition.
